Test results: US20230272117A1, “ANTI ABCC1 ANTIBODIES AND USES THEREOF” (Kenjockety Biotechnology, Inc., priority 2020, published 2023)

How the values were obtained:
cynomolgus ABCC1 [1] = molecular target: T1, cynomolgus ABCC1 (Macaca fascicularis, UniProt Q864R9); test: Titration binding assay of humanized antibodies (FIGS. 8A-8C), cynomolgus ABCC1; parameters: expressed in transfected cells; host or cells: 293T cells; conditions: cell line not stated
Experimental: (§1) Binding titration of recombinant antibodies to KPC1 transfectants was performed by serial dilution of antibodies from about 666 nM, Diluted antibody in flow cytometry buffer was incubated with cells on ice for 30 min. After 2 washes with flow cytometry buffer, bound antibody was detected with PE-labeled F(ab′)2 fragment goat anti-human IgG (Jackson ImmunoResearch) diluted 1:200 in flow cytometry buffer and incubated with cells for 20 min on ice. After 2 washes with flow cytometry buffer fluorescence was measured on an Attune NxT flow cytometer. Data were analyzed with GraphPad Prism 8.0 software to determine EC50's.

human ABCC1 [2] = molecular target: T2, human ABCC1 (Homo sapiens, UniProt P33527); test: ABCC1 efflux assay in HEK293T cells expressing human ABCC1; type: cell-based; parameters: expressed in transfected cells; host or cells: 293T (HEK 293T) cells; conditions: HEK293T cells expressing human ABCC1, Calcein AM fluorescence
Experimental: HEK 293T cells expressing human ABCC1 were washed several times and aliquoted into 96-well plates as 50 μl aliquots/well at a cell density of 1×10^6 cells per ml in phenol red-free DMEM. Cells were mixed with 50 μl antibodies and incubated for 1.5 h at 37° C. The cells were then washed twice and finally resuspended in […] PBS. Calcein AM fluorescence was measured by flow cytometry.

human ABCC1 [3] = molecular target: T2, human ABCC1; test: Titration binding assay of humanized antibodies (FIGS. 8A-8C), human ABCC1; parameters: expressed in transfected cells; host or cells: 293T (HEK 293T) cells; conditions: cell line not stated
Experimental: as §1

CT26 tumor = test: CT26 syngeneic mouse tumor model; type: in vivo; conditions: for effect of doxorubicin on the inhibition of tumor growth by the antibody: CT26, antibody 3 mg/kg + Doxorubicin 2 mg/kg; for tumor growth in vivo: CT26 in BALB/c mice, antibody 3 mg/kg intraperitoneally twice a week for two weeks
Experimental: Syngeneic models are allografts immortalized from mouse cancer cell lines, which are then grafted back into the same inbred immunocompetent mouse strain. CT26 is an N-nitroso-N-methylurethane-(NNMU) induced undifferentiated fibroblastic colon carcinoma cell line established from BALB/c mice with aggressive colon carcinoma. C26 cells were purchased from ATCC® (CRL-2638™) and maintained in RPMI-1640 medium supplemented with 10% FBS and 1% penicillin, 1% streptomycin at 37° C., 5% CO2. Cell lines used were authentic and confirmed to be mycoplasma negative. The cells are adherent with a fibroblast morphology and will form tumors and metastases post implantation into syngeneic BALB/c mice or immunocompromised mice.
1×10^6 cells diluted inPBS:Matrigel (1:1) were subcutaneously implanted using a 27G insulin syringe into anesthetized […] old female Balb/c mice under aseptic conditions. All animal maintenance, handling, surveillance, and animal procedures were performed in accordance with an approval from the APLAC protocol.
Once tumors reached 100-150 mm^3, mice were randomized into 6 groups of five mice each: • 1. Control isotype 3 mg/kg, • 2. Control isotype 3 mg/kg+Doxorubicin 2 mg/kg • 3. KNJY C1-831 3 mg/kg • 4. KNJY C1-831 3 mg/kg+Doxorubicin • 5. KNJY C1-787A 3 mg/kg • 6. KNJY C1-787A 3 mg/kg+Doxorubicin 2 mg/kg.
Doxorubicin is soluble in water. All test articles were dosed intraperitoneally twice a week for two consecutive weeks. Antibodies were dosed 4 hr prior to Doxorubicin.
Tumors were measured three times a week using a calibrated Vernier Caliper and tumor volume calculated as per the formula ½*L*S*S, where L is the long axis and S is the short axis of the tumor. Body weights were recorded before treatment started and were continuously monitored throughout the study. Animals were euthanized when turning moribund according to the above-mentioned predefined criteria rapid weight loss, loss of ability to ambulate, labored respiration, or inability to drink or feed to avoid animal suffering.

human ABCC1 [4] = molecular target: T2, human ABCC1; test: Titration binding to human ABCC1-overexpressing rat C6 glioma cells (FACS); parameters: expressed in transfected cells
cynomolgus ABCC1 [5] = molecular target: T1, cynomolgus ABCC1; test: Titration binding to cynomolgus ABCC1-overexpressing rat C6 glioma cells (FACS); parameters: expressed in transfected cells

T2 sequence (P33527 whole entry): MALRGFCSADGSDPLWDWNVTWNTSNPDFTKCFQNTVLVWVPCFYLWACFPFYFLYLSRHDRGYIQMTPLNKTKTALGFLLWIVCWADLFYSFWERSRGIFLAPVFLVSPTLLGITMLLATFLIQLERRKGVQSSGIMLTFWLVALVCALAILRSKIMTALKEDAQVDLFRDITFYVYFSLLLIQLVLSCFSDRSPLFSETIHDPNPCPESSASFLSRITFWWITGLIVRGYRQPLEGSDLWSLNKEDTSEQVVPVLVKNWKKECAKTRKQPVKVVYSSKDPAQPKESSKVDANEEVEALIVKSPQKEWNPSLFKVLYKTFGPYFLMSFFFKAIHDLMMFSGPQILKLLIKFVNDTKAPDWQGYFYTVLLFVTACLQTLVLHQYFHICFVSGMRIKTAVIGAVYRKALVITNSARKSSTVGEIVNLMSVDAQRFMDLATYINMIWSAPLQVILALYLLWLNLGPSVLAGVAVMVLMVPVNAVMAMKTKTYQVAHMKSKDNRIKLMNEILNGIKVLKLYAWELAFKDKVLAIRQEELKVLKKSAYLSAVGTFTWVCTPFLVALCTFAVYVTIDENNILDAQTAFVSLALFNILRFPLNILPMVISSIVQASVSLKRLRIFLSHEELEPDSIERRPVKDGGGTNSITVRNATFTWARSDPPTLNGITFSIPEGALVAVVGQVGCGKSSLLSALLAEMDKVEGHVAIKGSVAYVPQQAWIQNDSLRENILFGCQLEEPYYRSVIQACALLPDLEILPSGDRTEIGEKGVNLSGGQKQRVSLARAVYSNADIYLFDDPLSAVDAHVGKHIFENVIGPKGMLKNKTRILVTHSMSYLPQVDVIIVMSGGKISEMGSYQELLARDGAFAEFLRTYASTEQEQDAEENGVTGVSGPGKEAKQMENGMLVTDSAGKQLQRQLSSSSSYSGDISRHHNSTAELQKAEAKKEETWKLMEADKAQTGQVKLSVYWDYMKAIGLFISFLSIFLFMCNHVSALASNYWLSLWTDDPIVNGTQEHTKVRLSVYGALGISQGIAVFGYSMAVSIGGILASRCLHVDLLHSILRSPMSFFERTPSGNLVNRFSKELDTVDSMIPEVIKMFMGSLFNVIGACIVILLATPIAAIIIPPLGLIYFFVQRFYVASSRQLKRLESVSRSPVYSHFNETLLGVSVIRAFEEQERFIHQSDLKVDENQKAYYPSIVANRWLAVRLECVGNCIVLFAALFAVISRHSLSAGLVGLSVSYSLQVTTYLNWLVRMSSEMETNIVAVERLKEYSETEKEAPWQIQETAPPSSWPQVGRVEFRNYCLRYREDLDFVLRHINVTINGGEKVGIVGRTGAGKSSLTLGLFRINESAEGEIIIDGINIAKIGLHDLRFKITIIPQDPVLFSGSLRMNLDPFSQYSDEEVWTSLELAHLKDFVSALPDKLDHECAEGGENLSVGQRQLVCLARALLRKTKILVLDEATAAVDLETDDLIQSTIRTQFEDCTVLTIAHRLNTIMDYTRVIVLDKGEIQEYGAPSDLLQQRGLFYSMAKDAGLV
T1 sequence (Q864R9 whole entry, the tested form may be a part): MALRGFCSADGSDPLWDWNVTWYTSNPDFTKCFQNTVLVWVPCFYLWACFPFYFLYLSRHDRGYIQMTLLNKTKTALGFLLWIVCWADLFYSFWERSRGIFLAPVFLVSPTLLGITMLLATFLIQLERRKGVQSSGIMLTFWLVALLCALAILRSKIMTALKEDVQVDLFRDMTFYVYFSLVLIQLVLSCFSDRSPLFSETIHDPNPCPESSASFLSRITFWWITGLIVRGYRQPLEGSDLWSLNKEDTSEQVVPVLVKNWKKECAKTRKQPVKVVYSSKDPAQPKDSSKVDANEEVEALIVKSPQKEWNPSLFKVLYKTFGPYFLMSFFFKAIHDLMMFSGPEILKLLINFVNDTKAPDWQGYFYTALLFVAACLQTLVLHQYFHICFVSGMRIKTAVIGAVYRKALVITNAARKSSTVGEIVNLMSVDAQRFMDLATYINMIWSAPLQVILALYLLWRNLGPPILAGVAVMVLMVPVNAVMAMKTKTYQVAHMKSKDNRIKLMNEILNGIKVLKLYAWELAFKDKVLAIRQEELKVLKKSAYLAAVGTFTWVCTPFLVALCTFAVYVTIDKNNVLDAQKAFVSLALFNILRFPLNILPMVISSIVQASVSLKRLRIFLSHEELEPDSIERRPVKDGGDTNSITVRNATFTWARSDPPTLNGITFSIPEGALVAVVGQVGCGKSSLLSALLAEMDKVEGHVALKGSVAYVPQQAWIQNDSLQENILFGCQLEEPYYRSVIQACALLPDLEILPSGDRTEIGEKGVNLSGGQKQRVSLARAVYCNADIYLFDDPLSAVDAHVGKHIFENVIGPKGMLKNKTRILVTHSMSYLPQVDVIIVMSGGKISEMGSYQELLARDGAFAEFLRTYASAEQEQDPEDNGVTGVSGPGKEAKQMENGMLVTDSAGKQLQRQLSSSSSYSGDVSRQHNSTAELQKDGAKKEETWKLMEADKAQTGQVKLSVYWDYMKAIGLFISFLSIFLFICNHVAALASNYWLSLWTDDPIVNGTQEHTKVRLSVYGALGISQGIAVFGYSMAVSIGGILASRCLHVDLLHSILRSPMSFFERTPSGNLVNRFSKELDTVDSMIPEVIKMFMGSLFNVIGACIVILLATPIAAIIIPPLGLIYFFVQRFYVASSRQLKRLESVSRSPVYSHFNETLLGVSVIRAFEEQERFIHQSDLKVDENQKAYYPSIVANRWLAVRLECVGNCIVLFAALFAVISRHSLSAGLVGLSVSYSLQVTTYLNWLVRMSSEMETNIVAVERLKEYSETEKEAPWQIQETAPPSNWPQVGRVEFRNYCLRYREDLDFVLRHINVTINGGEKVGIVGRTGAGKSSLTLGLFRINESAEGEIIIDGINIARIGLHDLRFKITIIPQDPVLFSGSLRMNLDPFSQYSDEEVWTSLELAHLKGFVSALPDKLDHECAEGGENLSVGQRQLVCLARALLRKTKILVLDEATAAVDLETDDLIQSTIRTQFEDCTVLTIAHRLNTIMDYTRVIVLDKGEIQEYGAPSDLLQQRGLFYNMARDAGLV

Row | Molecule | binding to cynomolgus ABCC1 in the titration binding assay (cynomolgus ABCC1 [1]) | inhibition of the efflux function of the ABCC1 transporter (human ABCC1 [2]) | binding to human ABCC1 in the titration binding assay (human ABCC1 [3]) | binding to C6 cells overexpressing human ABCC1 (human ABCC1 [4]) | binding to C6 cells overexpressing cynomolgus ABCC1 (cynomolgus ABCC1 [5]) | further results
1 | C1.861.hu11: humanized anti-ABCC1 antibody, VH SEQ ID NO: 33, VL SEQ ID NO: 110 (antibody, V domains shown, humanized sequence) VH: EVQLQESGPGLVKPSETLSLTCTVSGFSLTSNGVTWVRQPPGKGLEWIAAISSGGNIYYNSAVKSRLTISRDTSKNQVSLKLSSVTAADTAVYYCTRARGTTTAYVMDAWGQGTTVTVSS VL: DVQLTQSPSSLSASVGDRVTITCKSSQSLLYSGNQKNYLAWYQQKPGKSPKLLIYWASTRQSGVPSRFSGSGSGTDFTLTISSLQPEDVATYYCQQYYDVLMNMFGGGTKLEIK | bind both human and cynomolgus ABCC1 | significantly inhibit the efflux function | bind both human and cynomolgus ABCC1 | – | – | –
2 | C1.861.hu21: humanized anti-ABCC1 antibody, VH SEQ ID NO: 34, VL SEQ ID NO: 110 (antibody, V domains shown, humanized sequence) VH: EVQLVESGGGLIQPGGSLRLSCAVSGFSLTSNGVTWVRQPPGKGLEWIAAISSGGNIYYNSAVKSRLTISRDTSKNTVYLQMNSLRAEDTAVYFCTRARGTTTAYVMDAWGQGTTVTVSS VL: DVQLTQSPSSLSASVGDRVTITCKSSQSLLYSGNQKNYLAWYQQKPGKSPKLLIYWASTRQSGVPSRFSGSGSGTDFTLTISSLQPEDVATYYCQQYYDVLMNMFGGGTKLEIK | bind both human and cynomolgus ABCC1 | significantly inhibit the efflux function | bind both human and cynomolgus ABCC1 | – | – | –
3 | C1.787a: anti-ABCC1 antibody, VH SEQ ID NO: 11, VL SEQ ID NO: 86 (antibody, listed as Rattus norvegicus, V domains shown) VH: EVQLTESGPGLVQPSQTLSLTCTVSGFSLTSNGVSWVRQPPGKGLEWIAAISSGGSTYYNSAFKSRLSISRHTSKSQVLLNMNSLQTEDTAMYFCARHRGYYWSNWGYFDYWGQGVMVTVSS VL: NIQLTQSPSLLSASVGDRVTLSCKGSQNINNYLAWYQQKLGEAPKLLIYKTNSLQTGIPSRFSGSGSGTDYTLTLSSLHSEDLATYYCCQYNDGYTFGAGTKLELK | – | – | – | – | – | effect of doxorubicin on the inhibition of tumor growth by the antibody (CT26 tumor): enhanced by doxorubicin; tumor growth in vivo (CT26 tumor): inhibit tumor growth
4 | C1.851.hu12: humanized anti-ABCC1 antibody, VH SEQ ID NO: 27, VL SEQ ID NO: 105 (antibody, V domains shown, humanized sequence) VH: EVQLQESGPGLVKPSETLSLTCTVSGFSLTNNGVSWIRQPPGKGLEWIAAISSGGNIYYNSAFKSRLTISRDTSKNQVSLKLSSVTAADTAVYYCARHRGYYGYNWGYFDYWGQGTLVTVSS VL: DIQLTQSPSSLSASVGDRVTITCKGSQNINNYLAWYQQKPGKAPKLLIYKTNSLQTGIPSRFSGSGSGTDYTLTISSLQPEDFATYYCYQYNNGYTFGQGTKLEIK | – | – | – | retain the ability to bind both human and cynomolgus ABCC1 | retain the ability to bind both human and cynomolgus ABCC1 | –
5 | C1.851.hu15: humanized anti-ABCC1 antibody, VH SEQ ID NO: 27, VL printed as SEQ ID NO: 77, LCDR3 SEQ ID NO: 149 (antibody, V domains shown, humanized sequence; Mus musculus or humanized sequence) VH: EVQLQESGPGLVKPSETLSLTCTVSGFSLTNNGVSWIRQPPGKGLEWIAAISSGGNIYYNSAFKSRLTISRDTSKNQVSLKLSSVTAADTAVYYCARHRGYYGYNWGYFDYWGQGTLVTVSS VL: DVVMTQAPSSLSASLGERISLTCRASQDIYGSLNWFQQKPDGTIKLLIYGTSSLDSGVPKRFSGSRSGSDYSLTISSLESEDFADYYCLQYASSPYTFGGGTKLEIK | – | – | – | retain the ability to bind both human and cynomolgus ABCC1 | retain the ability to bind both human and cynomolgus ABCC1 | –
6 | C1.851.hu14: humanized anti-ABCC1 antibody, VH SEQ ID NO: 27, VL printed as SEQ ID NO: 76, LCDR3 SEQ ID NO: 148 (antibody, V domains shown, humanized sequence; Mus musculus or humanized sequence) VH: EVQLQESGPGLVKPSETLSLTCTVSGFSLTNNGVSWIRQPPGKGLEWIAAISSGGNIYYNSAFKSRLTISRDTSKNQVSLKLSSVTAADTAVYYCARHRGYYGYNWGYFDYWGQGTLVTVSS VL: DVVMTQTPLSLPVSLGDQASISCRSSQSIVHSNGNTYLEWYLQKPGQSPKLLIYKVSNRFSGVPDRFSGSGTGTDFTLKISRVEAEDLGVYYCFQGSHVPRTFGGGTKLEIK | – | – | – | retain the ability to bind both human and cynomolgus ABCC1 | retain the ability to bind both human and cynomolgus ABCC1 | –
7 | C1.831: anti-ABCC1 antibody, VH SEQ ID NO: 16, VL SEQ ID NO: 90 (antibody, listed as Rattus norvegicus, V domains shown) VH: EVQLTESGPGLVQPSQTLSLTCTVSGFSLTSNGVSWVRQPPGKGLEWIAAISSGGNIYYNSVLKSRLSISRDTSKSQVFLKMSSVQTEDTAIYFCTRERGWNYPFITNGYYFDYWGQGVMVTVSS VL: EIMLTQSPSLLSASVGDRVTLSCKAGQNINNYLAWYQQKLGEAPKLLIYNANSLQTGIPSRFSGSGSGTDYTLTISSLQPEDVATYFCQQYNSWYTFGAGTKLEIK | – | – | – | – | – | effect of doxorubicin on the inhibition of tumor growth by the antibody (CT26 tumor): enhanced by doxorubicin; tumor growth in vivo (CT26 tumor): inhibit tumor growth
8 | C1.831.hu11: humanized anti-ABCC1 antibody, VH SEQ ID NO: 29, VL SEQ ID NO: 108 (antibody, V domains shown, humanized sequence) VH: EVQLQESGPGLVKPSETLSLTCTVSGFSLTSNGVSWVRQPPGKGLEWIAAISSGGNIYYNSVLKSRLTISRDTSKNQVSLKLSSVTAADTAVYYCTRERGWNYPFITNGYYFDYWGQGTLVTVSS VL: DIQLTQSPSSLSASVGDRVTITCKAGQNINNYLAWYQQKPGKAPKLLIYNANSLQTGIPSRFSGSGSGTDYTLTISSLQPEDFATYYCQQYNSWYTFGQGTKLEIK | bind both human and cynomolgus ABCC1 | significantly inhibit the efflux function | bind both human and cynomolgus ABCC1 | – | – | –
9 | C1.844.hu21: humanized anti-ABCC1 antibody, VH SEQ ID NO: 32, VL SEQ ID NO: 109 (antibody, V domains shown, humanized sequence) VH: EVQLVESGGGLIQPGGSLRLSCAVSGFSLTSNGVIWVRQPPGKGLEWIAAISSGGNIYYNSGLKSRLTISRDTSKNTVYLQMNSLRAEDTAVYYCTRARGTTTAYVMDAWGQGTLVTVSS VL: DIVMTQSPDSLAVSLGERATINCKSSQSLLYSVNQKNYLAWYQQKPGQSPKLLIYWASTRQSGVPDRFSGSGSGTDFTLTISSLQAEDVAVYYCQQYYDTLMKMFGAGTKLELK | bind both human and cynomolgus ABCC1 | significantly inhibit the efflux function | bind both human and cynomolgus ABCC1 | – | – | –
